In patent US20220041706A1 (published 2022):

Molecular target: cynomolgus monkey FGF19 (cynomolgus monkey)
Assay: SPR

cynomolgus monkey FGF19 (cynomolgus monkey), sequence (chain, as listed by the source): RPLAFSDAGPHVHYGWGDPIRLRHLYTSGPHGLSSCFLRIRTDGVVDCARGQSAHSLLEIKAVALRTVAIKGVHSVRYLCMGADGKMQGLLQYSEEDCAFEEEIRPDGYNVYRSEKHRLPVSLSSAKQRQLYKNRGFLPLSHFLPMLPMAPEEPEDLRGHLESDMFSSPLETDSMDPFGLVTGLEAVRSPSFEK

Kd: 1.63 nM
B1: G1A8 (anti-FGF19 human IgG1 antibody, affinity-improved from 31A3) (antibody, V domains shown)
VH: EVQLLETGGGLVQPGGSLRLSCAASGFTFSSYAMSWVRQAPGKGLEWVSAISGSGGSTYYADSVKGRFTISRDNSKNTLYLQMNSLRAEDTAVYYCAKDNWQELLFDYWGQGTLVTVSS
VL: QAGLTQPASVSGSPGQSITISCTGTSSDVGGYNYVSWYQQHPGKAPKLMIYDVSNRPSGVSDRFSGSKSGNTASLTISGLQTEDEADYYCSSWTRSSGLVFGGGTQLTVLG
